Test results: patent publication US20220213181A1 (Novartis, published 2022)
Changes are numbered by the printed parent chain.

Key:
[1] = target: T1, Human ANGPTL3(17-460)-FLAG-His-Avi (human, UniProt Q9Y5C1 17-460, biotin on the C-terminal Avi tag (BirA)); assay: direct ELISA on MSD streptavidin plate, biotinylated antigen immobilized at 1 nM, antibody at 1 nM, Sulfo-tagged anti-human IgG detection
T1 construct: also called full length human ANGPTL3; hANGPTL3
T1 sequence: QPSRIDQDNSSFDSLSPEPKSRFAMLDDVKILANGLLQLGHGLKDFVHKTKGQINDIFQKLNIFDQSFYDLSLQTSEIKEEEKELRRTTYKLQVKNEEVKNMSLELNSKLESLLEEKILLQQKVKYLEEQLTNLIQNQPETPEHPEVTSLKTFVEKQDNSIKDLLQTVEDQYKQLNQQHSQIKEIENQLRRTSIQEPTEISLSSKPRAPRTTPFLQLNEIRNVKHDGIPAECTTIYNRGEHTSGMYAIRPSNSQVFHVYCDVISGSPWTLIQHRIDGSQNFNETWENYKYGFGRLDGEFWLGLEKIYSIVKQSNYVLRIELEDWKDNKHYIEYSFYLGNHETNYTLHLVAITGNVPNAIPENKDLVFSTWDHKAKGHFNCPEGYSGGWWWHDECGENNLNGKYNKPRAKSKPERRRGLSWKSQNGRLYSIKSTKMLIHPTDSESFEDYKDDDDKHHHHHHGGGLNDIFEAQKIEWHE
Description: Direct ELISA assays were conducted to characterize antibody binding specificity of selected antibodies of the invention. The assay was performed as follows. A 384-well streptavidin-coated Meso Scale Discovery (MSD) plate was blocked by incubating the plate with 50 μL Blocking Buffer (PBS, pH 7.4, 5% w/v bovine serum albumin) per well at 22° C. for 1 hour with constant shaking (600 rpm). The blocked MSD plate was then washed 3 times with Wash Buffer (PBS, pH 7.4 and 0.05% v/v Tween-20) using a plate washer (BioTek). Following washing, biotinylated human ANGPTL4 proteins diluted in Assay Buffer (PBS, pH 7.4 without CaCl₂ or MgCl₂, 0.5% w/v fatty acid-free bovine serum albumin and 0.02% v/v Tween-20) were immobilized on the surface by incubation at 1 nM concentration (15 μL per well) at 22° C. for one hour: full length human ANGPTL4 (hANGPTL4), human ANGPTL4 coiled-coil domain (hANGPTL4-CCD) and full length human ANGPTL3 (hANGPTL3). The plate was then washed 3 times as described earlier. Antibody diluted to 1 nM concentration in Assay Buffer was then applied to the MSD plate (15 μL per well), and the plate was incubated for 1 hour at 22° C. with constant shaking (600 rpm). Bound antibodies were detected by adding 15 μL per well of a 1:500 dilution of Sulfo-tagged goat anti-human IgG. The plate was then incubated for one hour with constant shaking (600 rpm). The plate was washed 3 times, and then 15 μL/well of 1× MSD read buffer T was added and the plate was developed using a Sector Imager 6000 (Meso Scale Discovery). The data were transferred to Microsoft Excel for analysis and plotted using GraphPad Prism v6. […] An ANGPTL3-specific reference antibody was used as a positive control for the ANGPTL3 binding assay (FIG. 2).

[2] = target: T2, Human ANGPTL4(26-406)-FLAG-His6-Avi (human, UniProt Q9BY76 24-406, biotin on the C-terminal Avi tag (BirA) where the protein is immobilised); assay: cell-based or functional assay
T2 sequence: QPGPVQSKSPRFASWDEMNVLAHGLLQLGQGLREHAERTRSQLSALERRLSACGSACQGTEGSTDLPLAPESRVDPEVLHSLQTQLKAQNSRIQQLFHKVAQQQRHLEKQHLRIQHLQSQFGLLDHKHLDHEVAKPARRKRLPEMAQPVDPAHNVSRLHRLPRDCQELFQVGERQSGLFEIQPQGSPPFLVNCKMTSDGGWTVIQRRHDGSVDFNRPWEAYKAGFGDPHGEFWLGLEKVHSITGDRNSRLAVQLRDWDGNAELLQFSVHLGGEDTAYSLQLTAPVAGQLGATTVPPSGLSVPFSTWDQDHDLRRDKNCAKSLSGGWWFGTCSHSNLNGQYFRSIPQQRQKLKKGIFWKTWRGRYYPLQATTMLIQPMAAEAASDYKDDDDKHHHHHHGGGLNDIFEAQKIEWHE

P7 = target: T3, P7 (human); assay: linear peptide array on glass (JPT)
T3 construct: linear 15-mer from the N-terminal coiled coil domain of human ANGPTL4
T3 peptide: LAHGLLQLGQGLREH
Description: (§1) The ability of selected antibodies of invention, namely NEG276 and NEG318, to bind to linear 15-amino-acid peptides derived from the N-terminal coiled coil domain of human ANGPTL4 was tested. The peptides were immobilized on a glass surface, and the ability of NEG276 and NEG318 to bind to the immobilized peptides was evaluated using experimental methods optimized for linear peptide epitope mapping at JPT Peptide Technologies (Berlin, Germany).

P1 = target: T4, P1 (human); assay: linear peptide array on glass (JPT)
T4 construct: linear 15-mer from the N-terminal coiled coil domain of human ANGPTL4
T4 peptide: GPVQSKSPRFASWDE
Description: as §1

P21 = target: T5, P21 (human); assay: linear peptide array on glass (JPT)
T5 construct: linear 15-mer from the N-terminal coiled coil domain of human ANGPTL4
T5 peptide: STDLPLAPESRVDPE
Description: as §1

P26 = target: T6, P26 (human); assay: linear peptide array on glass (JPT)
T6 construct: linear 15-mer from the N-terminal coiled coil domain of human ANGPTL4
T6 peptide: VLHSLQTQLKAQNSR
Description: as §1

P28 = target: T7, P28 (human); assay: linear peptide array on glass (JPT)
T7 construct: linear 15-mer from the N-terminal coiled coil domain of human ANGPTL4
T7 peptide: TQLKAQNSRIQQLFH
Description: as §1

P5 = target: T8, P5 (human); assay: linear peptide array on glass (JPT)
T8 construct: linear 15-mer from the N-terminal coiled coil domain of human ANGPTL4
T8 peptide: WDEMNVLAHGLLQLG
Description: as §1

P22 = target: T9, P22 (human); assay: linear peptide array on glass (JPT)
T9 construct: linear 15-mer from the N-terminal coiled coil domain of human ANGPTL4
T9 peptide: LPLAPESRVDPEVLH
Description: as §1

P27 = target: T10, P27 (human); assay: linear peptide array on glass (JPT)
T10 construct: linear 15-mer from the N-terminal coiled coil domain of human ANGPTL4
T10 peptide: SLQTQLKAQNSRIQQ
Description: as §1

P41 = target: T11, P41 (human); assay: linear peptide array on glass (JPT)
T11 construct: linear 15-mer from the N-terminal coiled coil domain of human ANGPTL4
T11 peptide: LLDHKHLDHEVAKPA
Description: as §1

P30 = target: T12, P30 (human); assay: linear peptide array on glass (JPT)
T12 construct: linear 15-mer from the N-terminal coiled coil domain of human ANGPTL4
T12 peptide: NSRIQQLFHKVAQQQ
Description: as §1

P3 = target: T13, P3 (human); assay: linear peptide array on glass (JPT)
T13 construct: linear 15-mer from the N-terminal coiled coil domain of human ANGPTL4
T13 peptide: SPRFASWDEMNVLAH
Description: as §1

P24 = target: T14, P24 (human); assay: linear peptide array on glass (JPT)
T14 construct: linear 15-mer from the N-terminal coiled coil domain of human ANGPTL4
T14 peptide: SRVDPEVLHSLQTQL
Description: as §1

P42 = target: T15, P42 (human); assay: linear peptide array on glass (JPT)
T15 construct: linear 15-mer from the N-terminal coiled coil domain of human ANGPTL4
T15 peptide: HKHLDHEVAKPARRK
Description: as §1

P25 = target: T16, P25 (human); assay: linear peptide array on glass (JPT)
T16 construct: linear 15-mer from the N-terminal coiled coil domain of human ANGPTL4
T16 peptide: DPEVLHSLQTQLKAQ
Description: as §1

P16 = target: T17, P16 (human); assay: linear peptide array on glass (JPT)
T17 construct: linear 15-mer from the N-terminal coiled coil domain of human ANGPTL4; printed with Ser where ANGPTL4 has Cys
T17 peptide: RRLSASGSASQGTEG
Description: as §1

B1: NEG315 (antibody, human IgG1, kappa, V domains shown)
VH: QVQLVQSGAEVKKPGASVKVSCKASGYTFTNYWITWVRQAPGQGLEWMGDFYPGGGNTNYNAKLQGRVTLTVDTSTSTAYMELRSLRSDDTAVYYCARSPPQVAPFDYWGQGTLVTVSS
VL: DIQMTQSPSSLSASVGDRVTITCQASEYIYNWLGWYQQKPGKAPKLLISGASGLETGVPSRFSGSGSGKDYTFTISSLQPEDIATYYCQQYWSTPWTFGQGTKLEIKR
notes: humanized, hIgG1/kappa, parental antibody 37P1
[1]
  binding result: no binding (tested: 1 nM)
[2]
  EC50 of the antibody-mediated increase in lipoprotein lipase enzyme activity (reversal of LPL inhibition by ANGPTL4): 3 nM

B2: NEG313 (antibody, human IgG1, kappa, V domains shown)
VH: B1 VH with T30N, N57S
VL: B1 VL with E27D, N31H
notes: as for B1
[1]
  binding result: no binding (tested: 1 nM)
[2]
  EC50 of the antibody-mediated increase in lipoprotein lipase enzyme activity (reversal of LPL inhibition by ANGPTL4): 3 nM

B3: NEG318 (antibody, human IgG1, kappa, V domains shown)
VH: B1 VH with N31S, Y32F, F51I, G56A, N57T, A62E, A104G
VL: B1 VL with E27D, N31H, G34A, G53S, T94I
notes: humanized, hIgG1/kappa, parental antibody 14P18
P7
  binding result: no binding
P1
  binding result: no binding
P21
  binding result: no binding
P26
  binding result: no binding
P28
  binding result: no binding
P5
  binding result: no binding
P22
  binding result: no binding
P27
  binding result: no binding
P41
  binding result: no binding
P30
  binding result: no binding
P3
  binding result: no binding
P24
  binding result: no binding
P42
  binding result: no binding
P25
  binding result: no binding
P16
  binding result: no binding
[1]
  binding result: no binding (tested: 1 nM)
[2]
  EC50 of the antibody-mediated increase in lipoprotein lipase enzyme activity (reversal of LPL inhibition by ANGPTL4): 1.4 nM

B4: NEG319 (antibody, human IgG1, kappa, V domains shown)
VH: B1 VH with N31S, Y32F, F51I, G56A, A62E, A104G
VL: B1 VL with Y30I, G34A, S52T, T94I
notes: as for B3
[1]
  binding result: no binding (tested: 1 nM)
[2]
  EC50 of the antibody-mediated increase in lipoprotein lipase enzyme activity (reversal of LPL inhibition by ANGPTL4): 0.5 nM

B5: NEG276 (antibody, human IgG1, kappa)
heavy: not shown
light: EIVMTQSPATLSVSPGERATLSCKASQDIGSNLNWLQQKPGQAPRRLIYAVSNRGPGIPARFSGSRSGSEYTLTISSLQSEDFAVYYCLQYASSPWTFGQGTKVEIKRTVAAPSVFIFPPSDEQLKSGTASVVCLLNNFYPREAKVQWKVDNALQSGNSQESVTEQDSKDSTYSLSSTLTLSKADYEKHKVYACEVTHQGLSSPVTKSFNRGEC
notes: humanized, hIgG1/kappa, parental antibody 19C16
P7
  binding result: no binding
P1
  binding result: no binding
P21
  binding result: no binding
P26
  binding result: no binding
P28
  binding result: no binding
P5
  binding result: no binding
P22
  binding result: no binding
P27
  binding result: no binding
P41
  binding result: no binding
P30
  binding result: no binding
P3
  binding result: no binding
P24
  binding result: no binding
P42
  binding result: no binding
P25
  binding result: no binding
P16
  binding result: no binding
[1]
  binding result: no binding (tested: 1 nM)
[2]
  EC50 of the antibody-mediated increase in lipoprotein lipase enzyme activity (reversal of LPL inhibition by ANGPTL4): 0.6 nM

B6: NEG276-LALA (antibody, human IgG1, kappa, L234A L235A)
heavy: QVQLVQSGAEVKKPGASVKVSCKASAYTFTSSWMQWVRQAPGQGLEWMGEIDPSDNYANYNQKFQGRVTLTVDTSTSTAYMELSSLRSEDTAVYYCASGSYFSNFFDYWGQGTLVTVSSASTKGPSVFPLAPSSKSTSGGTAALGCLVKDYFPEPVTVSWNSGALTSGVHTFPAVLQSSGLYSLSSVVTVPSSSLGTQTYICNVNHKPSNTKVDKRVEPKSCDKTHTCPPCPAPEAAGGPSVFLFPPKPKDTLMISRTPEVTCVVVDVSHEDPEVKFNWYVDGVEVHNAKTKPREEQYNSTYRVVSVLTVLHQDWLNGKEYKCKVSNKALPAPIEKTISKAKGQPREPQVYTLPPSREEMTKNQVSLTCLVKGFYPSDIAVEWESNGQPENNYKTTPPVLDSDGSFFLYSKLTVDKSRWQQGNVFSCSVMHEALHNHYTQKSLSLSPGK
light: B5 light
[2]
  EC50 of the antibody-mediated increase in lipoprotein lipase enzyme activity (reversal of LPL inhibition by ANGPTL4): 0.7 nM

B7: NEG278 (antibody, human IgG1, kappa, V domains shown)
VH: QVQLVQSGAEVKKPGASVKVSCKASAYTFTSSWMQWVRQAPGQGLEWMGEIDPSDNYANYNQKFQGRVTLTVDTSTSTAYMELSSLRSEDTAVYYCASGSYFSNFFDYWGQGTLVTVSS
VL: EIVMTQSPATLSVSPGERATLSCKASQDIGSNLNWLQQKPGQAPRRLIYAASVREPGIPARFSGSRSGSEYTLTISSLQSEDFAVYYCLQYASSPWTFGQGTKVEIKR
notes: as for B5
[1]
  binding result: no binding (tested: 1 nM)
[2]
  EC50 of the antibody-mediated increase in lipoprotein lipase enzyme activity (reversal of LPL inhibition by ANGPTL4): 0.7 nM

B8: NEG310 (antibody, human IgG1, kappa, V domains shown)
VH: QVQLVQSGAEVKKPGASVKVSCKASGYTFTSYTMHWVRQAPGQGLEWMGYINPSSGYTKYNQKFQGRVTMTADKSTSTAYMELSSLRSEDTAVYYCAEGWLLLAMDYWGQGTLVTVSS
VL: EAVVTQSPATLSLSPGERATLSCRSSTGAVTTSNYAIWVQEKPGQAPRGLIGGTNNRAPGIPARFSGSLSGDDATLTISSLQPEDFAVYFCALWYSDHWVFGQGTKVEIKR
notes: humanized, hIgG1/kappa, parental antibody 17B1
[1]
  binding result: no binding (tested: 1 nM)
[2]
  EC50 of the antibody-mediated increase in lipoprotein lipase enzyme activity (reversal of LPL inhibition by ANGPTL4): 1.6 nM
